This data set deals with the molecule itself. Kind of data set: cryo-EM structure.

B1: human GluN2D, C-terminal domain truncated (M1-P879), Strep-tag II (receptor, UniProt O15399 28-879, looked up)
chain: FPEEAPGPGGAGGPGGGLGGARPLNVALVFSGPAYAAEAARLGPAVAAAVRSPGLDVRPVALVLNGSDPRSLVLQLCDLLSGLRVHGVVFEDDSRAPAVAPILDFLSAQTSLPIVAVHGGAALVLTPKEKGSTFLQLGSSTEQQLQVIFEVLEEYDWTSFVAVTTRAPGHRAFLSYIEVLTDGSLVGWEHRGALTLDPGAGEAVLSAQLRSVSAQIRLLFCAREEAEPVFRAAEEAGLTGSGYVWFMVGPQLAGGGGSGAPGEPPLLPGGAPLPAGLFAVRSAGWRDDLARRVAAGVAVVARGAQALLRDYGFLPELGHDCRAQNRTHRGESLHRYFMNITWDNRDYSFNEDGFLVNPSLVVISLTRDRTWEVVGSWEQQTLRLKYPLWSRYGRFLQPVDDTQHLTVATLEERPFVIVEPADPISGTCIRDSVPCRSQLNRTHSPPPDAPRPEKRCCKGFCIDILKRLAHTIGFSYDLYLVTNGKHGKKIDGVWNGMIGEVFYQRADMAIGSLTINEERSEIVDFSVPFVETGISVMVARSNGTVSPSAFLEPYSPAVWVMMFVMCLTVVAVTVFIFEYLSPVGYNRSLATGKRPGGSTFTIGKSIWLLWALVFNNSVPVENPRGTTSKIMVLVWAFFAVIFLASYTANLAAFMIQEEYVDTVSGLSDRKFQRPQEQYPPLKFGTVPNGSTEKNIRSNYPDMHSYMVRYNQPRVEEALTQLKAGKLDAFIYDAAVLNYMARKDEGCKLVTIGSGKVFATTGYGIALHKGSRWKRPIDLALLQFLGDDEIEMLERLWLSGICHNDKIEVMSSKLDIDNMAGVFYMLLVAMGLSLLVFAWEHLVYWRLRHCLGP
As to B1, the binding result is “binds”.
